# Measured values published in US20240209022A1, “NOVEL PEPTIDE HAVING ANTI-INFLAMMATORY AND TISSUE REGENERATIVE ACTIONS” (KOREA RESEARCH INSTITUTE OF BIOSCIENCE AND BIOTECHNOLOGY, priority 2020, published 2024).
# B1: Amuc_1409: SEQ ID NO: 15, functional fragment obtained by eliminating the leader sequence from SEQ ID NO: 14; protein derived from Akkermansia muciniphila (protein)
# chain: IPESSVPAAAVSSIKGAYPNAGPIEWDSEMHGMERIYEAEFRINGFQFDVKIAPDGKIVRIKEEIAASSLPEAVRASVLKRYPGCRIKEAEKITEGELVRYKVEVADSRDDYDVLIAPDGNILHVDR
# modifications: Amuc_1409_fragment
# notes: protein derived from Akkermansia muciniphila
# Assays:
# [1] = tested on: animal model of muscle atrophy/muscle strength loss due to natural aging (geriatric sarcopenia); assay: Geriatric sarcopenia model (natural aging): muscle strength and muscle mass; format: in vivo, C57BL/6 mice; details: vs PBS buffer group
# Protocol: The efficacy of the peptides was verified using an animal model of muscle atrophy/muscle strength loss due to natural aging (geriatric sarcopenia). At the time of administration of Amuc_1409, 80 to 83-week old C57BL/6 male mice were used. Amuc_1409 was dissolved in PBS buffer at a concentration of 2.4 μM and then orally administered to the mice by 150 μL per animal at the same time once a day for 32 weeks. To the control group, PBS buffer was orally administered in the same manner. At the 16th week of Amuc_1409 administration, aged mice were allowed to hold the wire net connected to the muscle strength probe of the grip strength meter with all four paws, and then the tail was carefully pulled backward to measure the maximum grip strength at the moment at which the mice held onto the wire net. For muscle weight, after administration, the gastrocnemius (GC), soleus, and tibialis anterior (TA) muscles from both hind paws of the aged mice of each group were carefully separated to avoid damage, and each weight was measured. Muscle weight versus body weight was calculated by correcting with the body weight of the mouse. After the end of the experiment, in order to analyze the size of muscle fibers in each group, TA muscles were fixed in 10% formalin, and frozen section samples (8 μm) were prepared to prepare slides. The prepared slides were washed with PBS buffer solution, permeabilized with 0.5% Triton X-100, blocked, and treated with primary antibody (anti-laminin). After 24 hours, a fluorescent secondary antibody (Alexa Fluor 488 Goat anti-rabbit IgG) was applied, and the slides were finally treated with DAPI for nuclear staining. The immunostained slides were subjected to photographing of muscle tissue using a confocal microscope. Using image analysis software (ImageInside), the distribution of cross-sectional area of muscle fibers was calculated for each size from a minimum of 500 μm^2 or less to 3500 μm^2 or more. Meanwhile, in order to examine the efficacy of Amuc_1409 as well as its fragments, 82- to 83-week-old C57BL/6 male mice were used. PEP001 was dissolved in PBS buffer at a concentration of 2.4 μM and then orally administered to the mice by 150 μL per animal at the same time once a day for 10 weeks. To the control group, PBS buffer was orally administered in the same manner. At the 10th week of PEP001 administration, the maximum grip strength and muscle weight were calculated in the same manner as the measurement in Amuc_1409. At the end of the experiment, a part of the GC muscle excised was homogenized with Trizol to extract RNA. Reverse transcriptase was added to the obtained RNA and reacted to synthesize cDNA, and SYBR Green and primers were added to perform quantitative real-time PCR (RT-qPCR). The gene expression level of insulin-like growth factor (IGF-1) involved in protein synthesis in muscle cells was then quantified. In addition, in order to confirm the efficacy of the novel tetrapeptides and tripeptides PEP006 to PEP013, the improvement efficacy on geriatric sarcopenia was examined using naturally aged 76 to 78-week old female C57BL/6J mice. For an additional 12 weeks, the novel tetrapeptides PEP006, PEP007, PEP008, PEP009, and PEP010 or novel tripeptides PEP011, PEP012, and PEP013 were each dissolved in PBS buffer at a concentration of 0.2 μg/150 μL and then orally administered to the naturally aged mice by 150 μL per mouse at the same time until the end of the test. To the control group, PBS buffer was orally administered in the same manner. For all animals, general symptoms were observed immediately before administration at the start of administration, and grip strength was measured at the 11th week of administration in order to analyze muscle strength attenuation. […]
# [2] = tested on: C57BL/6 mice with telogen hair; assay: Hair growth promotion on shaved dorsal skin; format: in vivo; details: vs vehicle
# Protocol: In order to examine the hair growth promoting efficacy, 8-week-old C57BL/6 mice with telogen hair having pink dorsal skin were used. The mice were anesthetized, then the hair on the back of the mouse was removed using an electric hair clipper for animals. Amuc_1409 was dissolved in vehicle (50% ethanol, 20% propylene glycol, 30% water) at a concentration of 3.2 μM and then applied to the skin of the hair-removed site by 200 μL per animal using a pipette once a day for 21 days, and PEP006 to PEP013 were each dissolved in vehicle (50% ethanol, 20% propylene glycol, 30% water) at a concentration of 30 μM and then applied to the skin of the hair-removed site by 200 μL per animal using a pipette once a day for 28 days. For the control group, the same volume of vehicle (50% ethanol, 20% propylene glycol, 30% water) was applied to the skin.
# Skin color and hair density were visually observed, scored according to the scoring criteria in Table 5, and graphed (Table 5).
# After the experiment, the test animals were sacrificed, then the skin tissue of the mouse was fixed in 10% NBF at room temperature for 24 hours or more, and then embedded in paraffin to prepare a 5 μm-thick section, and the section was stained with (H&E) hematoxylin and eosin. The histological changes of the hair follicle tissue in the H&E-stained tissue sections were observed under an optical microscope. The number and depth of hair follicles and the thicknesses of dermis and subcutis were measured under an optical microscope, and the hair growth cycle was evaluated. The number of hair follicles was calculated by counting the number of hair follicles present in the subcutaneous tissue under a 100-magnification optical microscope. Changes in the depth of hair follicles and the thicknesses of dermis and subcutis were measured using the Image J program using a scale bar.
# [3] = tested on: TPA-induced dermatitis model; assay: TPA-induced dermatitis (ear) model; format: in vivo, C57BL/6J mice; details: vs PBS buffer group
# Protocol: As a dermatitis model, one day before sample application, both ears of 8-week-old male C57BL/6J mice were shaved, 2.5 μg of TPA (12-otetrade-canoyl-phorbol-13-acetate) dissolved in 25 μL acetone was applied to the right ear of the mouse to induce skin swelling and inflammation, and the left ear was coated with 25 μL of acetone, which is a TPA solvent, and used as a negative control. From 3 days before TPA application, Amuc_1409 or PEP001 to PEP013 were each dissolved in PBS buffer at a concentration of 6.7 μM, and then injected into the abdominal cavity of mice by 150 μL per animal once a day at the same time. On day 3 (0 days) after administration of the peptide, the peptide was injected intraperitoneally one time 30 minutes before TPA application, and the drug was additionally injected intraperitoneally 3 hours after TPA injection. Into the control group, the same volume of PBS buffer was intraperitoneally injected, and the experiment was terminated 26 hours after TPA application. 26 hours after TPA application, the ear thickness was measured and photographs of both ears for each test group were taken in order to examine the degree of swelling and inflammation relief in the ears. After the test animal was sacrificed, the weight per area of the ear was measured, the ears of mice were fixed in 10% neutral buffered formalin at room temperature for 24 hours or more, and then embedded in paraffin to prepare 5 μm-thick sections, and the sections were stained with hematoxylin and eosin (H&E). The degrees of swelling of the ear and inflammatory cell infiltration were examined by observing the H&E-stained tissue section under an optical microscope.
molecule,measurement,setting,value
B1,muscle strength (grip strength),"[1]; 16th week of administration, oral",significantly increased
same,GC (gastrocnemius) muscle weight,[1]; after the experiment,increased
same,TA (tibialis anterior) muscle weight,[1]; after the experiment,increased
same,soleus muscle weight,[1]; after the experiment,significantly increased
same,"muscle fibers with a size of 2,000 μm^2 or more in the TA muscle",[1]; laminin immunostaining,significantly increased
same,number of muscle fibers with a cross-sectional size of 500 μm^2 or less in the TA muscle,[1]; laminin immunostaining,decreased
same,average size of all muscle fibers,[1],significantly increased
same,depth of the hair follicle,[2]; H&E,significantly increased
same,number of hair follicles present in the subcutaneous fat layer,[2]; H&E,significantly increased
same,proportion of hair in the anagen phase,[2]; H&E,significantly increased
same,thickness of dermis,[2]; H&E,significantly increased
same,thickness of subcutis,[2]; H&E,significantly increased
same,proportion of the area where hair grew out to the total area (hair growth score),"[2]; day 21 after application, 3.2 μM topical",significantly increased
same,ear thickness,[3]; 26 hours after TPA application,tended to decrease
same,ear weight,[3]; 26 hours after TPA application,significantly decreased
same,erythema and swelling of the ear (macro photograph),[3]; 26 hours after TPA application,reduced overall
same,ear tissue swelling and inflammatory cell infiltration (H&E),[3],significantly reduced
